B1: STK38L (parent)
chain: FCIDSENRIGNSGVEEIKGHPFFE

Variants of: B1
Experiment: protein stability index of a GFP-peptide fusion (GPS, HEK-293T) (PSI 1-6); higher = more stable
Conditions: c terminus: a fixed tail appended
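Further: lentivirally expressed fusions sorted by FACS into six bins by GFP to DsRed ratio, PSI derived from sequencing read proportions per bin multiplied by bin number.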

| Variant | protein stability index |
| --- | --- |
| FCIDSENRIGNSGVEEIKNHPFFE [G19N] | 2.68 |
| FCIDSENRIGNSGVEEIKHHPFFE [G19H] | 2.13 |
| FCIDSENRIGNSGVEEIKIHPFFE [G19I] | 1.54 |
| FCIDSENRIGNSGVEEIKYHPFFE [G19Y] | 1.99 |
| FCIDSENRIGNSGVEEIKCHPFFE [G19C] | 1.68 |
| FCIDSENRIGNSGVEEIKEHPFFE [G19E] | 3.45 |
| FCIDSENRIGNSGVEEIKPHPFFE [G19P] | 1.99 |
| FCIDSENRIGNSGVEEIKKHPFFE [G19K] | 2.16 |
| FCIDSENRIGNSGVEEIKTHPFFE [G19T] | 2.19 |
| FCIDSENRIGNSGVEEIKFHPFFE [G19F] | 1.8 |
| FCIDSENRIGNSGVEEIKSHPFFE [G19S] | 2.43 |
| FCIDSENRIGNSGVEEIKMHPFFE [G19M] | 1.67 |
| FCIDSENRIGNSGVEEIKAHPFFE [G19A] | 2.15 |
| FCIDSENRIGNSGVEEIKLHPFFE [G19L] | 1.87 |
| FCIDSENRIGNSGVEEIKDHPFFE [G19D] | 3.21 |
| FCIDSENRIGNSGVEEIKRHPFFE [G19R] | 1.63 |
| FCIDSENRIGNSGVEEIKQHPFFE [G19Q] | 2.37 |
| FCIDSENRIGNSGVEEIKVHPFFE [G19V] | 2.09 |
| FCIDSENRIGNSGVEEIKWHPFFE [G19W] | 2.27 |
| FCIDSENRIGFSGVEEIKGHPFFE [N11F] | 1.88 |
| FCIDSENRIGRSGVEEIKGHPFFE [N11R] | 2.31 |
| FCIDSENRIGPSGVEEIKGHPFFE [N11P] | 2.12 |
| FCIDSENRIGMSGVEEIKGHPFFE [N11M] | 1.83 |
| FCIDSENRIGDSGVEEIKGHPFFE [N11D] | 2.73 |

| Variant | protein stability index |
| --- | --- |
| FCIDSENRIGWSGVEEIKGHPFFE [N11W] | 1.57 |
| FCIDSENRIGTSGVEEIKGHPFFE [N11T] | 1.81 |
| FCIDSENRIGVSGVEEIKGHPFFE [N11V] | 2 |
| FCIDSENRIGSSGVEEIKGHPFFE [N11S] | 1.99 |
| FCIDSENRIGLSGVEEIKGHPFFE [N11L] | 1.65 |
| FCIDSENRIGESGVEEIKGHPFFE [N11E] | 3.11 |
| FCIDSENRIGQSGVEEIKGHPFFE [N11Q] | 2.73 |
| FCIDSENRIGGSGVEEIKGHPFFE [N11G] | 2.35 |
| FCIDSENRIGCSGVEEIKGHPFFE [N11C] | 2.3 |
| FCIDSENRIGKSGVEEIKGHPFFE [N11K] | 2.03 |
| FCIDSENRIGYSGVEEIKGHPFFE [N11Y] | 2.12 |
| FCIDSENRIGHSGVEEIKGHPFFE [N11H] | 2.38 |
| FCIDSENRIGASGVEEIKGHPFFE [N11A] | 2.11 |
| FCIDSENRIGNSGVDEIKGHPFFE [E15D] | 1.62 |
| FCIDSENRIGNSGVAEIKGHPFFE [E15A] | 1.99 |
| FCIDSENRIGNSGVVEIKGHPFFE [E15V] | 2.52 |
| FCIDSENRIGNSGVTEIKGHPFFE [E15T] | 2.08 |
| FCIDSENRIGNSGVQEIKGHPFFE [E15Q] | 1.57 |
| FCIDSENRIGNSGVMEIKGHPFFE [E15M] | 2.51 |
| FCIDSENRIGNSGVIEIKGHPFFE [E15I] | 1.46 |
| FCIDSENRIGNSGVREIKGHPFFE [E15R] | 2.08 |
| FCIDSENRIGNSGVNEIKGHPFFE [E15N] | 1.64 |
| FCIDSENRIGNSGVPEIKGHPFFE [E15P] | 1.98 |
| FCIDSENRIGNSGVLEIKGHPFFE [E15L] | 1.9 |

| Variant | protein stability index |
| --- | --- |
| FCIDSENRIGNSGVSEIKGHPFFE [E15S] | 1.96 |
| FCIDSENRIGNSGVCEIKGHPFFE [E15C] | 2.68 |
| FCIDSENRIGNSGVHEIKGHPFFE [E15H] | 2 |
| FCIDSENRIGNSGVKEIKGHPFFE [E15K] | 2.22 |
| FCIDSENRIGNSGVGEIKGHPFFE [E15G] | 2.08 |
| FCIDSENRIGNSGVFEIKGHPFFE [E15F] | 1.73 |
| FCIDSENRIGNSGVYEIKGHPFFE [E15Y] | 1.92 |
| FCIDSENRIGNSGVEEIVGHPFFE [K18V] | 2.63 |
| FCIDSENRIGNSGVEEIEGHPFFE [K18E] | 3.07 |
| FCIDSENRIGNSGVEEIDGHPFFE [K18D] | 4.12 |
| FCIDSENRIGNSGVEEISGHPFFE [K18S] | 3 |
| FCIDSENRIGNSGVEEIIGHPFFE [K18I] | 2.31 |
| FCIDSENRIGNSGVEEIMGHPFFE [K18M] | 1.65 |
| FCIDSENRIGNSGVEEITGHPFFE [K18T] | 2.6 |
| FCIDSENRIGNSGVEEIFGHPFFE [K18F] | 2.12 |
| FCIDSENRIGNSGVEEILGHPFFE [K18L] | 2.89 |
| FCIDSENRIGNSGVEEIYGHPFFE [K18Y] | 2.16 |
| FCIDSENRIGNSGVEEIGGHPFFE [K18G] | 2.36 |
| FCIDSENRIGNSGVEEIWGHPFFE [K18W] | 2.47 |
| FCIDSENRIGNSGVEEIHGHPFFE [K18H] | 2.34 |
| FCIDSENRIGNSGVEEIQGHPFFE [K18Q] | 2.2 |
| FCIDSENRIGNSGVEEIPGHPFFE [K18P] | 3.07 |
| FCIDSENRIGNSGVEEINGHPFFE [K18N] | 2.8 |
| FCIDSENRIGNSGVEEICGHPFFE [K18C] | 2.82 |

| Variant | protein stability index |
| --- | --- |
| FCIDSENRIGNSGVEEIAGHPFFE [K18A] | 2.48 |
| FCIDSENRIYNSGVEEIKGHPFFE [G10Y] | 1.79 |
| FCIDSENRIGNSPVEEIKGHPFFE [G13P] | 2.68 |
| FCIDSENRIGNSTVEEIKGHPFFE [G13T] | 2.75 |
| FCIDSENRIGNSCVEEIKGHPFFE [G13C] | 2.1 |
| FCIDSENRIGNSDVEEIKGHPFFE [G13D] | 2.55 |
| FCIDSENRIGNSKVEEIKGHPFFE [G13K] | 2.44 |
| FCIDSENRIGNSWVEEIKGHPFFE [G13W] | 2.87 |
| FCIDSENRIGNSVVEEIKGHPFFE [G13V] | 1.97 |
| FCIDSENRIGNSRVEEIKGHPFFE [G13R] | 2.26 |
| FCIDSENRIGNSNVEEIKGHPFFE [G13N] | 2.73 |
| FCIDSENRIGNSQVEEIKGHPFFE [G13Q] | 2.44 |
| FCIDSENRIGNSAVEEIKGHPFFE [G13A] | 2.07 |
| FCIDSENRIGNSFVEEIKGHPFFE [G13F] | 2.95 |
| FCIDSENRIGNSIVEEIKGHPFFE [G13I] | 2.47 |
| FCIDSENRIGNSYVEEIKGHPFFE [G13Y] | 2.28 |
| FCIDSENRIGNSLVEEIKGHPFFE [G13L] | 2.22 |
| FCIDSENRIGNSMVEEIKGHPFFE [G13M] | 2.12 |
| FCIDSENRIGNSHVEEIKGHPFFE [G13H] | 2.56 |
| FCIDSENRIGNSEVEEIKGHPFFE [G13E] | 3.12 |
| FCIDSENRIGNSGVEEIKGHGFFE [P21G] | 2.54 |
| FCIDSENRIGNSGVEEIKGHFFFE [P21F] | 1.7 |
